Results on 4 substances are retold here after US20040161776A1.

Assay [1] deals with prostate specific membrane antigen (PSMA), full-length human (human) (UniProt Q04609). Put plainly: fraction of 177Lu labeled control antibody bound to cells, column PSMA; column 3T3 (no PSMA): 0.7.
For assay [2] the target is unchanged.
Assay [3] has the same target. In words: competition on PSMA-3T3 cells; unmodified mJ591 varied, competitor 111In radiolabeled 4.40.
Assay [4] has the same target. Put plainly: fraction of 177Lu labeled antibody bound to cells, column PSMA; column 3T3 (no PSMA): 1.7.
Assay [5] shares this target. In words: radiolabeled mAb bound to PSMA-3T3 cell pellets.
The target is the same in assay [6]. In words: average, PSMA-3T3 cells.

Several values for one entry are separate records, joined by “and”; a condition that tells them apart may be missing. Identical values can stand only once.

prostate specific membrane antigen (PSMA), full-length human (human), sequence (Q04609 whole entry): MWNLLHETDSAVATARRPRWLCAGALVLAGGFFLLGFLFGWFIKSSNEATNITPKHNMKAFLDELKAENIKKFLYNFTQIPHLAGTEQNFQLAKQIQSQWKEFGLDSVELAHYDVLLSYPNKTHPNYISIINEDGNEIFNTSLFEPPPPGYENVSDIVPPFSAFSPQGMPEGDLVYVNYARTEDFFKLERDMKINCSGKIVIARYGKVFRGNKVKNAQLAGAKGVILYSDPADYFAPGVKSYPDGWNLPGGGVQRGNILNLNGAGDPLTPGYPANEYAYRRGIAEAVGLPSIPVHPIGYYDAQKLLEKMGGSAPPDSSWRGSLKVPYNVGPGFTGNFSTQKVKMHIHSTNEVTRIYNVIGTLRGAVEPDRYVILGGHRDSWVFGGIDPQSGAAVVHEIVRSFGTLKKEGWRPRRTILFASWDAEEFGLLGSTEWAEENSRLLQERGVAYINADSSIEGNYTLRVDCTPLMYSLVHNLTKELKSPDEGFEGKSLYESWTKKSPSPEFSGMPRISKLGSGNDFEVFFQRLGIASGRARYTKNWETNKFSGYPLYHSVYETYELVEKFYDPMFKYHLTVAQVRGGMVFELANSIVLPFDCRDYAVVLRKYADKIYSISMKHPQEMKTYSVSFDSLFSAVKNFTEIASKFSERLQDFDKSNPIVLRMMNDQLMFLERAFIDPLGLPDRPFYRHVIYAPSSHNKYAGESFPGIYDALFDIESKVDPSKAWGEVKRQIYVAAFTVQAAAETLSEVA
mJ591 (antibody), sequence (VH): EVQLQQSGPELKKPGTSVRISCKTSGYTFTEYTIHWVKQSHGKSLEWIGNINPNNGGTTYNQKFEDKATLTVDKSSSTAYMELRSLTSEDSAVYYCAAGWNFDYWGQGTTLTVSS
mJ591 (antibody), sequence (VL): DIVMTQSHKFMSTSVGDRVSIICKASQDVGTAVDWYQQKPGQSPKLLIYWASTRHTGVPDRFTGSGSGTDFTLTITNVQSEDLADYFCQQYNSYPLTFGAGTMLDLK

In turn, IgG (antibody) yielded a Cell Based Immunoreactivity (%) in assay [1] of 5.9%. Also, the PSMA+/PSMA- Ratio of tumor uptake, Mean in assay [2] was 1.16.
Substance mAb J591 (murine) (antibody) showed an IC50 (read off the curve) in assay [3] of 3 nM.
For mJ591 (antibody), the Cell Based Immunoreactivity (%) in assay [4] amounted to 46.2%. Besides, in assay [2], the PSMA+/PSMA- Ratio of tumor uptake, Mean was determined as 2.5.
In the case of “111In radiolabeled CHX-A''-DTPA antibody mJ591”, the Immunoreactivity (%) was 58.5% and 54.9% in assay [5]; 56.7% in assay [6].
